The source of these data is paper PMC9063845.

Experiment in all cases: SEC; preparative HiLoad 16/600 Superdex 200 pg (120 ml), 20 mM HEPES, 50 mM NaCl pH 7.5; elution at ~85 ml compared with protein standards (~60 kDa)
Test [1] concerns the target amilCP (Acropora millepora).
Test [2] deals with gfasPurple (Galaxea fascicularis).
For test [3], the target named is spisPink (Stylophora pistillata).
The target of test [4] is eforRed (Echinopora forsaliana).

In test [1], amilCP (natural protein) returned a stoichiometry N of 2.
Take gfasPurple (natural protein): in test [2], the stoichiometry N came to 2.
As to spisPink (natural protein), in test [3], the stoichiometry N amounted to 2.
In test [4], eforRed (natural protein) yielded a stoichiometry N of 2.
